The values that follow come from patent US10118947B2, “Modulation of structured polypeptide specificity” (BICYCLE THERAPEUTICS LIMITED, priority 2013, dated 2018).

Read-outs that look alike come from different tables or passages of the source. Numbered stars: 1 amine (or outer) side, 2 acyl side, 3 side chain; on linkers, the order of the positions; unused ones are H or OH. Bridge positions count the residues as written; N and C are the ends. Square brackets hold non-standard residues; d marks the D form. Peptide text beside a SMILES is read from it. Gly(N-CH2CH2-imidazol-4-yl) = O=C(O)CNCCc1c[nH]cn1; TBMB = c1c(C[*:1])cc(C[*:3])cc1C[*:2]; Dpg = CCCC(N)(CCC)C(=O)O; Aze = O=C(O)[C@@H]1CCN1

Data set [1] addresses T1, human plasma Kallikrein (Homo sapiens, UniProt P03952).
T1 construct: purchased Stratech, UK
The experiment in a line: Functional enzyme inhibition assay with fluorogenic substrate Z-PheArg-AMC, human plasma Kallikrein. It is filed as biochemical. The note with it: for F (Kivar/KiWT): ratio of Ki to wild type. The gist of the method: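 Human plasma kallikrein at 26.5 pM was preincubated 15 minutes with test peptide in Tris/NaCl/MgCl2/CaCl2/BSA buffer pH7.4 at 25° C, then Z-PheArg-AMC added to 100 μM final in 4% DMSO.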

Data set [2] can be described thus: Plasma stability profiling Method #1 (MALDI-TOF, 35% plasma), rat plasma. It is filed as in vitro ADME. The note with it: method #1. The procedure: A rapid plasma stability profiling assay was developed that employed mass spectrometric detection (MALDI-TOF, Voyager DE, Applied Biosystems) of the parent mass, until the time when the parent peptide mass was no longer observable. Specifically, 200 uM of peptide was incubated in the presence of 35% rat or human plasma (Sera labs, using citrate as anticoagulant) at 37 deg C., which was supplemented with 1×PBS (derived from a 10×PBS Stock, Sigma). At various time points (i.e. t=0, 3, 24 hrs, henceafter daily up to 10 days), 2 uL of sample was added to 18 uL of 30 mM ammonium bicarbonate in a 1:1 mixture of acetonitrile:H2O. Samples were frozen at −80 deg C. until the time of analysis. For mass spectrometric analysis that determines the approximate detection window of the peptide, the acetonitrile:H2O-diluted sample of a given time point was spotted directly (0.7 uL) onto the MALDI plate. Matrix (alpha-cyanocinnamic acid, Sigma, prepared as a saturated solution in 1:1 acetonitrile:water containing 0.1% trifluoroacetic acid) was layered over the sample (1 uL). At a similar laser intensity setting on the MALDI TOF, the time could then be determined until parent peptide was no longer detectable. It should be noted that this is a qualitative assay serves to detect relative changes in plasma stability.

The nature of data set [3]: Plasma stability / fragment profiling Method #2 (MALDI-TOF, 95% plasma), human plasma. Format: in vitro ADME. As to conditions: for Fragments (human plasma): Table 3a, peptide fragments observed after incubation in human plasma. The procedure: To obtain stability data more rapidly, peptides were also assessed in 95% plasma. Here, PBS was omitted, and a 1 mM peptide stock (in DMSO) was directly diluted into plasma (i.e. 2.5 uL stock into 47.5 uL plasma), giving a final concentration of 50 uM. 5 uL samples were taken at appropriate time points and frozen at −80 deg C. For analysis, the samples were defrosted, mixed with 15 uL of 1:1 acetonitrile:methanol, and centrifuged at 13 k for 5 min. 5 uL of the peptide-containing supernatant was aspirated and mixed with 30 mM ammonium bicarbonate in a 1:1 mixture of acetonitrile:H2O. 1 uL of this was then spotted on the MALDI plate and analysed as described above. As above, it should be noted that this is a qualitative assay serves to detect relative changes in plasma stability.
Ac-06-34-18(TMB)-NH2 Phe2 Tyr4 (referred to as wild type peptide) was subsequently subjected to human plasma, and analysed for fragments to appear over time. This was compared to the degradation profile observed in human plasma using the NMe-Arg5 derivative of 06-34-18 (FIGS. 18a and 18b). Fragmentation was determined according to Method #2.

In data set [4] the target is T1, human plasma Kallikrein. The experiment in a line: Phage selections against human plasma Kallikrein (abundance in selection output). It is filed as binding. As to conditions: Table 17; relative abundance in the total selection outputs. The protocol: Glycerol stocks of phage libraries were diluted to OD600=0.1 in 500 ml 2YT/chloramphenicol (30 μg/ml) cultures and phage were produced at 30° C. over night (15-16 hrs). Phage were purified and chemically modified as described in Heinis, et al., Nat Chem Biol 2009, 5 (7), 502-7 Biotinylated hPK (3 μg) (IHPKA, from human plasma, Innovative Research, Novi, Mich., USA) was incubated with 50 μl pre-washed magnetic streptavidin beads (Dynal, M-280 from Invitrogen, Paisley, UK) for 10 minutes at RT. Beads were washed 3 times prior to blocking with 0.5 ml washing buffer (10 mM Tris-Cl, pH 7.4, 150 mM NaCl, 10 mM MgCl2, 1 mM CaCl2) containing 1% BSA and 0.1% Tween 20 for 30 minutes at RT with rotation. […] Blocked beads were then mixed with the blocked chemically modified phage and incubated for 30 minutes on a rotating wheel at
RT. Beads were washed 8 times with washing buffer containing 0.1% Tween 20 and twice with washing buffer before incubation with 100 μl of 50 mM glycine, pH 2.2 for 5 minutes. Eluted phage were transferred to 50 μl of 1 M Tris-Cl, pH 8 for neutralization, incubated with 30 ml TG1 cells at OD600=0.4 for 90 minutes at 37° C. and the cells were plated on large 2YT/chloramphenicol plates. One or two additional rounds of panning were performed using the same procedures. In the second round of selection, neutravidin-coated magnetic beads were used to prevent the enrichment of streptavidin-specific peptides. The neutravidin beads were prepared by reacting 0.8 mg neutravidin (Pierce, Rockford, Ill., USA) with 0.5 ml tosyl-activated magnetic beads (Dynal, M-280 from Invitrogen, Paisley, UK) according to the supplier's instructions.
The WPAR (SEQ ID No. 19) motif identified from Example 1 was analysed in the context of the 06-34-03 peptide, in order to identify alternatives or improvements to the WPAR motif. A library was constructed where positions 1, 6, 7, 8, 9 &10 of 06-34-03 were fixed and positions 2, 3, 4 & 5 were randomised (see ‘Randomisation of peptide domains—Library construction’ in Methods above). Selections against human plasma Kallikrein were performed at a variety of stringencies (see Phage selections' in Methods above). All output sequences were identified and analysed for target binding (see ‘Randomisation of peptide domains—Assay of binding of individual clones’ in Methods above). Table 17 lists each unique sequence, its relative abundance in the selection output (frequency), and a rank number according to target binding strength.

[5] abbreviates: Table 3a, Alanine scan in Loop2, read-out: Ki.

T1 sequence (P03952 20-638): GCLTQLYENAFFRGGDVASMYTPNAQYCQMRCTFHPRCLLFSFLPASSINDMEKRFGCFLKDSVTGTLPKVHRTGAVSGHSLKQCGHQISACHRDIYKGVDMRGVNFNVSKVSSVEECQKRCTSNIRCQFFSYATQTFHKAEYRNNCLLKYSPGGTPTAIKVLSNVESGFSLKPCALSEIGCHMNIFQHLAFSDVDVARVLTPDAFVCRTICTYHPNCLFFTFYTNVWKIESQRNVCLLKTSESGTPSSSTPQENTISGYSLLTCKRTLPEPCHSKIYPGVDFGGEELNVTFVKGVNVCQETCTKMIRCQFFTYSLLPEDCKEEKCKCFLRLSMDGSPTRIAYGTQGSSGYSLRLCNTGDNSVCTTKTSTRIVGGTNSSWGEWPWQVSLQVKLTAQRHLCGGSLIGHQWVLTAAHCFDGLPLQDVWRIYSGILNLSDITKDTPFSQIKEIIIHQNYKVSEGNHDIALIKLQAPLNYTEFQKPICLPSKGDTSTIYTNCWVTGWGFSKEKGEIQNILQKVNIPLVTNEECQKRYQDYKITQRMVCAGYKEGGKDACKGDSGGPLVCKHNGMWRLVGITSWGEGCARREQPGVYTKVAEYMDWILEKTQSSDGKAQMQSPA

For the molecule `CC(=O)N[C@H]1CSCc2cc3cc(c2)CSC[C@H](NC(=O)[C@H](CCCNC(=N)N)NC(=O)[C@H](C)NC(=O)[C@@H]2CCN2C(=O)[C@H](Cc2c[nH]c4ccccc24)NC(=O)[C@H](CO)NC1=O)C(=O)N[C@@H](CC(C)C)C(=O)N[C@@H](Cc1c[nH]cn1)C(=O)N[C@@H](CCC(N)=O)C(=O)N[C@@H](CC(=O)O)C(=O)N[C@@H](CC(C)C)C(=O)N[C@H](C(N)=O)CSC3` [Ac-(06-34-18) Aze3] (Ac-CSW[Aze]ARCLHQDLC-NH2; linker 1-7-13 via TBMB), the “affinity surpassing that of wildtype by a factor” value at human plasma Kallikrein [1] turned out to be 3. The “Observable in rat plasma, for days” value in data set [2] (Table 13) amounted to 2 days. In the case of `CCCC1(CCC)NC(=O)[C@@H](NC(C)=O)CSCc2cc3cc(c2)CSC[C@H](NC(=O)[C@H](CCCNC(=N)N)NC(=O)[C@H](C)NC(=O)[C@@H]2CCCN2C(=O)[C@H](Cc2c[nH]c4ccccc24)NC1=O)C(=O)N[C@@H](CC(C)C)C(=O)N[C@@H](Cc1c[nH]cn1)C(=O)N[C@@H](CCC(N)=O)C(=O)N[C@@H](CC(=O)O)C(=O)N[C@@H](CC(C)C)C(=O)N[C@H](C(N)=O)CSC3` [Ac-(06-34-18) Dpg1] (Ac-C[Dpg]WPARCLHQDLC-NH2; linker 1-7-13 via TBMB), the Ki on human plasma Kallikrein [1] (Table 14, read-out: Ki (nM) (human kallikrein)) came out at 1.09 nM; at human plasma Kallikrein [1] (read-out: Ki / affinity to human Kallikrein) it was 1.1 nM. Moreover, the “Observable in rat plasma, for days” value in data set [2] (Table 14) amounted to 2 days. Consider `CC(=O)N[C@H]1CSCc2cc3cc(c2)CSC[C@H](NC(=O)[C@H](CCCNC(=N)N)NC(=O)[C@H](C)NC(=O)[C@@H]2CCCN2C(=O)[C@H](Cc2ccccc2)NC(=O)[C@H](CO)NC1=O)C(=O)N[C@@H](CC(C)C)C(=O)N[C@@H](Cc1c[nH]cn1)C(=O)N[C@@H](CCC(N)=O)C(=O)N[C@@H](CC(=O)O)C(=O)N[C@@H](CC(C)C)C(=O)N[C@H](C(N)=O)CSC3` [Ac-(06-34-18) FPAR] (Ac-CSFPARCLHQDLC-NH2; linker 1-7-13 via TBMB), for which the “reduction in potency/affinity compared to wildtype” value at human plasma Kallikrein [1] was 40 fold. The “Observable in rat plasma, for days” value in data set [2] (Table 21) was found to be 2 days. Consider `CC(=O)N[C@H]1CSCc2cc3cc(c2)CSC[C@H](NC(=O)[C@H](CCCNC(=N)N)NC(=O)[C@H](Cc2ccc(O)cc2)NC(=O)[C@@H]2CCCN2C(=O)[C@H](Cc2ccccc2)NC(=O)[C@H](CO)NC1=O)C(=O)N[C@@H](C)C(=O)N[C@@H](Cc1c[nH]cn1)C(=O)N[C@@H](CCC(N)=O)C(=O)N[C@@H](CC(=O)O)C(=O)N[C@@H](CC(C)C)C(=O)N[C@H](C(N)=O)CSC3` [Ac-(06-34-18) Phe2 Tyr4 Ala6] (Ac-CSFPYRCAHQDLC-NH2; linker 1-7-13 via TBMB), for which the “Fragments (human plasma)” value in data set [3] is “-LHQ, -R”. Moreover, the Ki at human plasma Kallikrein [1] (setting [5]) came to 1.9 nM. Further, at human plasma Kallikrein [1] (Table 3a), the “F (Kivar/KiWT)” value amounted to 5.

What is called Kd is the concentration at which binding is half-saturated. A high value points to weaker binding. As for `CC(=O)N[C@H]1CSCc2cc3cc(c2)CSC[C@H](NC(=O)[C@H](CCCNC(=N)N)NC(=O)[C@H](Cc2ccc(O)cc2)NC(=O)[C@@H]2CCCN2C(=O)[C@H](Cc2ccccc2)NC(=O)[C@H](CO)NC1=O)C(=O)N[C@@H](CC(C)C)C(=O)N[C@@H](C)C(=O)N[C@@H](CCC(N)=O)C(=O)N[C@@H](CC(=O)O)C(=O)N[C@@H](CC(C)C)C(=O)N[C@H](C(N)=O)CSC3` [Ac-(06-34-18) Phe2 Tyr4 Ala7] (Ac-CSFPYRCLAQDLC-NH2; linker 1-7-13 via TBMB), in data set [3], the “Fragments (human plasma)” value is “-R”. Moreover, at human plasma Kallikrein [1], binding was put at a Kd of 23 nM and the “reduction in potency/affinity compared to wildtype” value is given as 56 fold. Further, the Ki at human plasma Kallikrein [1] (setting [5]) was 23.4 nM. The “F (Kivar/KiWT)” value on human plasma Kallikrein [1] (Table 3a) is 56. Consider `CC(=O)N[C@H]1CSCc2cc3cc(c2)CSC[C@H](NC(=O)[C@H](CCCNC(=N)N)NC(=O)[C@H](Cc2ccc(O)cc2)NC(=O)[C@@H]2CCCN2C(=O)[C@H](Cc2ccccc2)NC(=O)[C@H](CO)NC1=O)C(=O)N[C@@H](CC(C)C)C(=O)N(CCc1c[nH]cn1)CC(=O)N[C@@H](CCC(N)=O)C(=O)N[C@@H](CC(=O)O)C(=O)N[C@@H](CC(C)C)C(=O)N[C@H](C(N)=O)CSC3` [Ac-(06-34-18) Phe2 Tyr4 N-His] (Ac-CSFPYRCL[Gly(N-CH2CH2-imidazol-4-yl)]QDLC-NH2; linker 1-7-13 via TBMB), for which the “degradation / fragments in human plasma (in words)” value in data set [3] (running text and figure legends) is “significantly enhanced stability in loop2”. With CRFPFKCTHQDLC, the FREQUENCY in the data set with human plasma Kallikrein [4] is 1. On the same count and under the same terms, next, CSFLYKCTHQDLC: 2. Still for that read-out and setting: the figure for CSFMYKCTHQDLC is 1; for CSFPFKCTHQDLC it is 4; for CSFPFWCTHQDLC it is 1. The same measure, in the same setting: next, CSFPIRCTHQDLC: 1; CSFPWRCTHQDLC: 1; CSFPYKCTHQDLC: 1.

Regarding CSFPYRCTHQDLC, the FREQUENCY with human plasma Kallikrein [4] is reported as 12. The molecule CSFSYKCTHQDLC returned an FREQUENCY with human plasma Kallikrein [4] of 1. Still for that read-out and setting: next, CSHPFRCTHQDLC: 1; CSHPYRCTHQDLC: 2; CSHRRWCTHQDLC: 1.

For the molecule CSIPFKCTHQDLC, the FREQUENCY in the data set with human plasma Kallikrein [4] is recorded as 1. The same measure, in the same setting: the figure for CSLFDHCTHQDLC is 1; for CSLPFKCTHQDLC it is 1.

As to CSLPIRCTHQDLC, the FREQUENCY with human plasma Kallikrein [4] was determined as 1.

Consider CSMPYRCTHQDLC, for which, in the data set with human plasma Kallikrein [4], the FREQUENCY amounted to 2.

The molecule CSQVVGCTHQDLC displayed an FREQUENCY with human plasma Kallikrein [4] of 1. On to CSWAARCTHQDLC, for which the FREQUENCY in the data set with human plasma Kallikrein [4] was determined as 1. With CSWHARCTHQDLC, in the data set with human plasma Kallikrein [4], the FREQUENCY was 1. Same read-out and setting: next, CSWLARCTHQDLC: 8; CSWPARCTHQDLC: 24; CSWPFRCTHQDLC: 7.

The molecule CSWPSRCTHQDLC had an FREQUENCY with human plasma Kallikrein [4] of 51. The same measure, in the same setting: next, CSWPYKCTHQDLC: 1. The same measure, in the same setting: next, CSWPYRCTHQDLC: 3; CSWQARCTHQDLC: 1; CSWSARCTHQDLC: 10. In turn, CSWSYRCTHQDLC returned an FREQUENCY in the data set with human plasma Kallikrein [4] of 1. The same measure, in the same setting: the figure for CSWWARCTHQDLC is 1. The molecule CSYPFRCTHQDLC displayed an FREQUENCY with human plasma Kallikrein [4] of 1. The same measure, in the same setting: the figure for CSYPIRCTHQDLC is 2.

In the data set with human plasma Kallikrein [4], CSYPWRCTHQDLC showed an FREQUENCY of 1.

The molecule CSYPYRCTHQDLC yielded an FREQUENCY in the data set with human plasma Kallikrein [4] of 2.
